Measurements: publication PMC9610207 (Viruses, 2022)
No end group written: not given here.

Target: SNX27 PDZ (amino acids 740–141) (human, UniProt Q96L92 43-136)
Test: fluorescence polarisation
Conditions: both partners purified

SADAQSFLNGFAV (also: FITC-labeled) [FITC-labeled peptide NSP11 4393-4405 of SARS-CoV-2]
Kd: > 400 µM
